The text below walks through data of patent US20200109194A1 (BLUEFIN BIOMEDICINE, published 2020).

Test [1] deals with T1, endogenous human TMEFF1 on cancer cell lines (H69, HCC1187, PA-1, H526, H1048) (human, UniProt Q8IYR6 40-380).
T1 sequence: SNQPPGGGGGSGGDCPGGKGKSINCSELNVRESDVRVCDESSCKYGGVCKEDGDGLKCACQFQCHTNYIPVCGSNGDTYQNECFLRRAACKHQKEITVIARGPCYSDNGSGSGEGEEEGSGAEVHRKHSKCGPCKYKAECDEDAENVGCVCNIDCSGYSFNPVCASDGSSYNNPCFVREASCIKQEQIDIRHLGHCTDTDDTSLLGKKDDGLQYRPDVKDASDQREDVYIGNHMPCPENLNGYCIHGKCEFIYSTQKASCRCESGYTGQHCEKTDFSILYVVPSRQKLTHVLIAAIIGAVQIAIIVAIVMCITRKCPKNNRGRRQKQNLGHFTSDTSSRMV
The test can be described thus: cell-based or functional assay.

The target in test [2] is T2, human TMEFF1 extracellular domain recombinant protein (plasmid BBP377, S40-V330, C-terminal 8xHis) (human, UniProt Q8IYR6 40-330).
T2 construct: Secreted from CHO cells with a non-native signal peptide (not part of the mature protein); also called hTMEFF1 ECD; hTMEFF1-ECD
T2 sequence: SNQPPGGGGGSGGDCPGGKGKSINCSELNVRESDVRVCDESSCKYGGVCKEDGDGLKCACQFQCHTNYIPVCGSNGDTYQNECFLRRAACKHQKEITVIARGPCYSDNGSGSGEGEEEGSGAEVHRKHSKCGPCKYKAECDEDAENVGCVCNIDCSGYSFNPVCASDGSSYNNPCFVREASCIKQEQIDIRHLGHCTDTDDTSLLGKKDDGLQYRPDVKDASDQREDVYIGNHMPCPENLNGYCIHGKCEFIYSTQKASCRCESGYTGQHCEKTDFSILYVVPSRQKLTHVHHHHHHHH
The test is described as follows: BLI (Octet Red), antibody on Protein A biosensor, recombinant hTMEFF1 ECD as analyte. As for the experimental part: (§1) The affinity of antibodies to various recombinant TMEFF1 protein was determined on an Octet Red™ instrument. After loading reagents into a 96-well plate, the Octet Red™ with Protein A-conjugated biosensors was programmed as follows: 30 seconds for baseline #1; 120 seconds to immobilize the antibody; 30 seconds for baseline #2; 300 seconds for association of antibody to recombinant TMEFF1; and 300-600 seconds for dissociation of recombinant TMEFF1 from the antibody.
Affinity of thirteen antibodies was calculated using hTMEFF1 ECD recombinant protein by Octet™.

The target of test [3] is T3, Macaca fascicularis TMEFF1 extracellular domain recombinant protein (plasmid BBP480, S40-V330, C-terminal … (Macaca fascicularis)).
T3 construct: range 40-330; also called cyTMEFF1 ECD; monkey TMEFF1 ectodomain
The test can be described thus: BLI (Octet Red), antibody on Protein A biosensor, recombinant cyTMEFF1 ECD as analyte. The procedure: as §1
Affinity of 7 antibodies was calculated using cyTMEFF1 ECD recombinant protein by Octet™.
For orientation: BLI is a label-free optical method that tracks binding on a fibre tip over time.

B1: 30C10-PBD (antibody, human IgG1, V domains shown)
VH: QVQLVESGGGVVQPGRSLRLSCAASGFTFSSYGMHWVRQAPGKGLEWVAVIWYDGSDKYYADSVKGRFTISRDNSKKTLYLQMNSLRAEDTAVYFCARETIFRGLTITFFDHWGQGTLVTVSS
VL: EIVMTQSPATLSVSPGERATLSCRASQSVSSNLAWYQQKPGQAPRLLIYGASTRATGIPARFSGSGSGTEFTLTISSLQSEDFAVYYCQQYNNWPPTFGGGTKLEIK
modifications: MA-PEG8-VA-PAB-SG3199 (PBD) on TCEP-reduced hinge region thiols, sites not stated; DAR 1.7
For the molecule B1, in test [1], the “IC50 of growth of H526 cells (CellTiter Glo, 5 days)” value is 4.27 ng/mL and the “IC50 of growth of H1048 cells (CellTiter Glo, 5 days)” value was 0.53 ng/mL.

B2: 36H6 (antibody, human IgG1, V domains shown)
VH: QVQLVESGGGVVQPGRSLRLSCAASGFTFSDYGMHWVRQAPGKGLEWVAVIWYEGGNKYYTDSVKGRFTISRDNSKNTLYLQMNSLRAEDTAVYYCARILLWFGESYGMDVWGQGTTVTVSS
VL: DIQMTQSPSSLSASVGDRVTITCRASQGISNYLAWYQQKPGKVPKLLIYAASTLQSGVPSRFSGSGSGTDFTLTISSLQPEDVATYYCQKYNNAPWTFGQGTKVEIK
Broadly, the Kd is the free concentration of one partner at which half of the binding sites on the other are occupied at equilibrium, for simple one-to-one binding. On to B2, for which the values for the Kd in test [2] and in test [3] were 51 nM and 96 nM, respectively.

B3: M10 (antibody, human IgG1, V domains shown)
VH: QVQLVESGGGGVQPGRSLRLSCAASGFTFSRYGMHWVRQAPGKGLEWVAVIWYDGSDEYYADSVKGRFTISRDNSKNTLYLQMNSLRAEDTAVYYCARETMGRGIIISYFDYWGQGTPVTVSS
VL: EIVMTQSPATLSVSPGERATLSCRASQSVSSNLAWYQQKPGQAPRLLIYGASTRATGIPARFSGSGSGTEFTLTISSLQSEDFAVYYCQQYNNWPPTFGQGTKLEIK
In the case of B3, the Kd amounted to 9 nM in test [2] and 7 nM in test [3].

B4: M1F1 (antibody, human IgG1, V domains shown)
VH: QVQLQESGPGLVKPSETLSLTCAVSGYSISSGYFWGWIRQPPGKKLEWIGSIYHSGSTYYNPSLKSRVTMSVDTSKNQFSLKLSSVTAADTAVYYCAREGDCSGGICYWYFDLWGRGTLVTVSS
VL: EIVMTQSPATLSVSPGERATLSCRASQSVSSNLAWYQQKPGQAPRLLIYGASTRATGIPARFSGSGSGTEVTLTISSLQSEDFAVYYCQQYNKWPLTFGGGTKVEIK
For the molecule B4, the Kd in test [2] came out at 19 nM; in test [3] it was 27 nM.
